Test results from patent JP2008136455A (dated 2008).

Key:
[1] = biological target: T1, ビメンチン(vimentin) (human (endogenous protein of the human …, UniProt P08670 2-466)); test: streptavidin affinity precipitation from HT1080 lysate, stringent wash, western blot with anti-vimentin antibody
T1 construct: Endogenous intracellular protein

[2] = biological target: T2, hnRNP-K (heterogeneous nuclear ribonucleoprotein K) (human (endogenous protein of the human …, UniProt P61978 1-463, limits assumed)); test: streptavidin affinity precipitation from HT1080 lysate, stringent wash, western blot with anti-hnRNP-K antibody
T2 construct: Endogenous intracellular protein

T1 sequence (P08670 2-466 limits assumed): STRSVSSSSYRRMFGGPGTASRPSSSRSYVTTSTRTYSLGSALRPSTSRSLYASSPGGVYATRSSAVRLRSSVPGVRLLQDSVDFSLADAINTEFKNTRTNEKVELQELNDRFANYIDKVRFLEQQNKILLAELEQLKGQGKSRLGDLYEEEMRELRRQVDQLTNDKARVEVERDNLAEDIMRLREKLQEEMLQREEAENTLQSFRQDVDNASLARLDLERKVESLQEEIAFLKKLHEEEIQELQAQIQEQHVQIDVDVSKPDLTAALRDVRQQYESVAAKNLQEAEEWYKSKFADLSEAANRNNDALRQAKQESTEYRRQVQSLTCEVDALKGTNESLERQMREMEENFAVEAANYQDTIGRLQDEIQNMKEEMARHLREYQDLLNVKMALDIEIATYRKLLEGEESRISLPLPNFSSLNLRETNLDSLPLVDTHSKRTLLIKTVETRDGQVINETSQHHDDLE

B1: VHH-Sfi-SBT (VHH, not shown: large carriers)
VHH: DVQLQASGGGSVQAGGSLRLSCAASGYTIGPYCMGWFRQAPGKEREGVAAINMGGGITYYADSVKGRFTISQDNAKNTVYLLMNSLEPEDTAIYYCAADSAIYASYYECGHGLSTGGYGYGPWGQGTQVTVSS
Q: Does B1 bind [1]?
A: Result: no binding

Q: Does B1 bind [2]?
A: Result: no binding
